Experimental data as given in patent US20100305026A1.

Molecular target: CD44v6 (endogenous human CD44 variant isoforms containing exon v6) (human), P16070
Test: cell-based or functional assay

B1: human CD44v6 14-mer peptide having SEQ ID NO: 2 (peptide)
peptide: KEQWFGNRWHEGYR
  entry of InlB-coated latex beads into HeLa cells (block of entry): 100%
